Experimental data from patent US20110177111A1, “[…] AGAINST STAPHYLOCOCCUS AUREUS BIOFILMS […] WALL-[…]” (UNIVERSITY OF MARYLAND, BALTIMORE, priority 2008, published 2011).
Marks after values point to notes of the source that are not given here.

B1: Glucosaminidase: Purified recombinant S. aureus glucosaminidase (SEQ ID NO:1), one of the two protein components of autolysin AtlA (protein, listed as Staphylococcus aureus)
chain: MAKKFNYKLPSMVALTLVGSAVTAHQVQAAETTQDQTTNKNVLDSNKVKATTEQAKAEVKNPTQNISGTQVYQDPAIVQPKAANKTGNAQVNQKVDTTQVNGDTRATQSTTSNNAKPVTKSTNTTAPKTNNNVTSAGYSLVDDEDDNSENQINPELIKSAAKPAALETQYKAAAPKATPVAPKAKTEATPKVTTFSASAQPRSAAAAPKTSLPKYKPQVNSSINDYIRKNNLKAPKIEEDYTSYFPKYAYRNGVGRPEGIVVHDTANDRSTINGEISYMKNNYQNAFVHAFVDGDRIIETAPTDYLSWGVGAVGNPRFINVEIVHTHDYASFARSMNNYADYAATQLQYYGLKPDSAEYDGNGTVWTHYAVSKYLGGTDHADPHGYLRSHNYSYDQLYDLINEKYLIKMGKVAPWGTQSTTTPTTPSKPSTPSKPSTPSTGKLTVAANNGVAQIKPTNSGLYTTVYDKTGKATNEVQKTFAVSKTATLGNQKFYLVQDYNSGNKFGWVKEGDVVYNTAKSPVNVNQSYSIKPGTKLYTVPWGTSKQVAGSVSGSGNQTFKASKQQQIDKSIYLYGSVNGKSGWVSKAYLVDTAKPTPTPTPKPSTPTTNNKLTVSSLNGVAQINAKNNGLFTTVYDKTGKPTKEVQKTFAVTKEASLGGNKFYLVKDYNSPTLIGWVKQGDVIYNNAKSPVNVMQTYTVKPGTKLYSVPWGTYKQEAGAVSGTGNQTFKATKQQQIDKSIYLYGTVNGKSGWISKAYLAVPAAPKKAVAQPKTAVKAYAVTKPQTTQTVSKIAQVKPNNTGIRASVYEKTAKNGAKYADRTFYVTKERAHGNETYVLLNNTSHNIPLGWFNVKDLNVQNLGKEVKTTQKYTVNRSNNGLSMVPWGTKNQVILTGNNIAQGTFNATKQVSVGKDVYLYGTINNRTGWVNSKDLTAPTAVKPTTSAAKDYNYTYVIKNGNGYYYVTPNSDTAKYSLKAFNEQPFAVVKEQVINGQTWYYGKLSNGKLAWIKSTDLAKELIKYNQIGMTLNQVAQIQAGLQYKPQVQRVPGKWTDANFNDVKHAMDTKRLAQDPALKYQFLRLDQPQNISIDKINQFLKGKGVLENQGAAFNKAAQMYGINEVYLISHALLETGNGTSQLAKGADVVNNKVVTNSNTKYHNVFGIAAYDNDPLREGIKYAKQAGWDTVSKAIVGGAKFIGNSYVKAGQNTLYKMRWNPAHPGTHQYATDVDWANINAKIIKGYYDKIGEVGKYFDIPQYK

Experiments:
MRSA-M2 [1] = test: Rabbit tibial osteomyelitis model: vaccination, MRSA challenge, then vancomycin therapy; details: rabbits, 75 μg each antigen per injection
MRSA-M2 [2] = test: Rabbit tibial osteomyelitis (biofilm) infection model: vaccination, then intratibial MRSA-M2 challenge; format: in vivo, Staphylococcus aureus
Experimental: Animals were divided at random into groups.
Production of osteomyelitis. […] The infection was allowed to progress for 14 days.
Analysis of vaccine efficacy. Vaccine efficacy was evaluated in three ways.
Among these antigens, autolysin (AtlA) was one of the most immunoreactive. Because of its reported role in biofilm formation (31, 32) and its up-regulation during early biofilm growth (when an immune response could theoretically eradicate the biofilm), autolysin was tested as a vaccine. Purified recombinant glucosaminidase (one of the two protein components of AtlA) was injected into rabbits (three doses of 10 μg each, 10 days apart) and then animals were challenged using a tibial osteomyelitis infection.
Antibodies elicited by a single antigen vaccine may not provide adequate immunological recognition of the biofilm in vivo to enable complete microbial clearance. […] Therefore, the aforementioned antigens were tested as a multi-component vaccine. To this end, animals were vaccinated with 10 μg of each of four antigens: glucosaminidase, SA0688 (an ABC transporter lipoprotein), SA0037 (a conserved hypothetical protein), and SA0486 (a hypothetical lipoprotein), following the same dosing schedule as above. […] As well, vaccinated animals trended to lower CFU counts and an 88% reduction in bacterial loads in the tibia (FIG. 3A—quadrivalent). However, this reduction in bacterial populations was not statistically significant. Two doses of the combined vaccine at 15 μg each per dose were also studied, wherein increasing the prime and boost may lead to a more robust initial immune response when the biofilm is immature (and thus, enable clearance by the immune response).

Molecule	Percentage showing clinical signs of infection (MRSA-M2 [1]; vancomycin 40 mg/kg twice daily for ten days) [%]	Mean radiological score (MRSA-M2 [1]; vancomycin 40 mg/kg twice daily for ten days from 14 days after challenge, score 0 to 4+)	Mean radiological score (MRSA-M2 [2]; New Zealand White rabbits, three i.m. doses of 10 μg (each antigen), 10 days apart, 14 days after intratibial MRSA, score 0 to 4+ (Table 2))	Number cleared (MRSA-M2 [2]; rabbits cleared of infection, 4 glucosaminidase, 5 multi-component animals, three doses of 10 μg (each antigen))	% showing clinical signs of infection (MRSA-M2 [2]; rabbits, three doses of 10 μg (each antigen), non-weight bearing on affected leg, 14 days after MRSA inoculation) [%]	bacteriological signs of infection compared to PBS-vaccinated controls (MRSA-M2 [2]; rabbits, three doses of 10 μg each, 10 days apart)	Mean CFU/grams bone in affected tibias (MRSA-M2 [2]; rabbits, three doses of 10 μg, FIG. 1, PBS controls 9.84×10^7)
CN[C@H](CC(C)C)C(=O)N[C@H]1C(=O)N[C@@H](CC(N)=O)C(=O)N[C@H]2C(=O)N[C@H]3C(=O)N[C@H](C(=O)N[C@H](C(=O)O)c4cc(O)cc(O)c4-c4cc3ccc4O)[C@H](O)c3ccc(c(Cl)c3)Oc3cc2cc(c3O[C@@H]2O[C@H](CO)[C@@H](O)[C@H](O)[C@H]2O[C@H]2C[C@](C)(N)[C@H](O)[C@H](C)O2)Oc2ccc(cc2Cl)[C@H]1O [PBS + vancomycin, vancomycin]	100	2.1	–	–	–	–	–
B1	–	–	0.37*	1	0	did not lead to significant differences	3.6×10^7 CFU/grams bone
